Test results reported in US20070287670A1 (Bristol-Myers Squibb, published 2007).
Where no end group is shown, it is not given here. [ ]: non-standard residue; d: D form. Bip = N[C@@H](Cc1ccc(-c2ccccc2)cc1)C(=O)O

B1: GLP-1 11-mer peptide analog His-Ala-Glu-Gly-Thr-Phe-Thr-Ser-Asp-Bip-Bip-NH2 (peptide)
peptide: HAEGTFTSD[Bip][Bip]-NH2
modifications: N-terminus assumed
SMILES: C[C@H](NC(=O)[C@@H](N)Cc1c[nH]cn1)C(=O)N[C@@H](CCC(=O)O)C(=O)NCC(=O)N[C@H](C(=O)N[C@@H](Cc1ccccc1)C(=O)N[C@H](C(=O)N[C@@H](CO)C(=O)N[C@@H](CC(=O)O)C(=O)N[C@@H](Cc1ccc(-c2ccccc2)cc1)C(=O)N[C@@H](Cc1ccc(-c2ccccc2)cc1)C(N)=O)[C@@H](C)O)[C@@H](C)O
B2: peptide corresponding to the N-terminal 1-9 sequence of GLP-1, His-Ala-Glu-Gly-Thr-Phe-Thr-Ser-Asp-NH2 (peptide)
peptide: HAEGTFTSD-NH2

Target: Full-length human glucagon-like peptide 1 receptor (human, UniProt P43220 24-463)
Test: cell-based or functional assay

Row | Binder | cAMP production (EC50), cAMP cell-based assay in CHO-GLP-1R-19 cells
1 | B1 | 1100 nM
2 | B2 | > 1 millimolar
